In one experiment the target is human GLP-1 receptor (human, UniProt P43220 24-463). In words: cell-based or functional assay.
The target in another experiment is human glucagon receptor (human, UniProt P47871 26-477). In words: cell-based or functional assay.

Where no end group is shown, it is not given here. [ ]: non-standard residue; d: D form. Bip(2'-Et-4'-OMe) = CCc1cc(OC)ccc1-c1ccc(C[C@H](N)C(=O)O)cc1; αMePhe(2,6-F2) = C[C@](N)(Cc1c(F)cccc1F)C(=O)O; αMePhe(2-F) = C[C@](N)(Cc1ccccc1F)C(=O)O; αMeBip(OMe) = alpha-methylated Bip(OMe); hhPhe = N[C@@H](CCCc1ccccc1)C(=O)O; αMeD = C[C@](N)(CC(=O)O)C(=O)O; αMeP = C[C@@]1(C(=O)O)CCCN1; αMeAPPA = not defined here; αMeS = C[C@](N)(CO)C(=O)O; Aib = CC(C)(N)C(=O)O

human glucagon receptor, sequence (P47871 26-477): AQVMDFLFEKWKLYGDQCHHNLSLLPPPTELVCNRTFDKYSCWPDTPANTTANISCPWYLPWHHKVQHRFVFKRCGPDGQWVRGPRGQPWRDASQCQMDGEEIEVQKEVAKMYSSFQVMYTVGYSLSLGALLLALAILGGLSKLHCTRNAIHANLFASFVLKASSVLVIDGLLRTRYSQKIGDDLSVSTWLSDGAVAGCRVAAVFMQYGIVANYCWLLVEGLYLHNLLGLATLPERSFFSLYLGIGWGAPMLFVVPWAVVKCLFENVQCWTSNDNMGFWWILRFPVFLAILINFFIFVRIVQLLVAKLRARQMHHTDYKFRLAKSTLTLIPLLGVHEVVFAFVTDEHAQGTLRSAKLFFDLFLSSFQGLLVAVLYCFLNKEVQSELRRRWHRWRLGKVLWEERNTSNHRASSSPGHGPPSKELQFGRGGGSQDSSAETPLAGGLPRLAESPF

Consider VHAQGTFT[αMeS]D[αMeBip(OMe)][hhPhe]-NH2 [Seq. ID. No. 34], for which, in the experiment with human GLP-1 receptor, the “cAMP release, % activity with respect to control, at 1 nM” value (shortened to “cAMP release, % activity … at 1 nM”) was 99 % of control; the “cAMP release, % activity with respect to control, at 10 nM” value (from here on “cAMP release, % activity … at 10 nM”) is 99 % of control; the “cAMP release, % activity with respect to control, at 100 nM” value (from here on “cAMP release, % activity … at 100 nM”) was 99 % of control; the “cAMP release, % activity with respect to control, at 1 µM” value (shortened to “cAMP release, % activity … at 1 µM”) was 99 % of control. Also, the “cAMP release, % activity with respect to control, at 10 µM” value (from here on “cAMP release, % activity … at 10 µM”) in the experiment with human GLP-1 receptor is 99 % of control.

B1: Seq. ID. No. 84 (peptide)
peptide: VH[αMeP]QGTFTSD[Bip(2'-Et-4'-OMe)][αMeAPPA]
modifications: not fully specified (C-terminus); printed as VH-(αMe-Pro)-QGTFTSD-Bip(OMe)-(αMe-APPA); reading uncertain
With B1, in the experiment with human GLP-1 receptor, the “cAMP release, % activity … at 1 nM” value is 40 % of control; the “cAMP release, % activity … at 10 nM” value is 81 % of control; the “cAMP release, % activity … at 100 nM” value is 87 % of control; the “cAMP release, % activity … at 1 µM” value was 95 % of control. In the experiment with human GLP-1 receptor, the “cAMP release, % activity … at 10 µM” value is 98 % of control.
The corresponding values for VHSQGT[αMePhe(2,6-F2)]T[αMeS]D[αMeBip(OMe)][hhPhe]-NH2 [Seq. ID. No. 49] are 38 % of control, 78 % of control, 86 % of control, 95 % of control and 98 % of control.

B2: Seq. ID. No. 13 (peptide)
peptide: VH[Aib]EGTFTSD[αMeBip(OMe)][hhPhe]
modifications: not fully specified (C-terminus); printed as VH-Aib-EGTFTSD-(αMe-Bip(OMe))-(APPA)
On to B2, for which, in the experiment with human glucagon receptor, the “cAMP production (pmol/ml/µg prt) with saturated glucagon peptide, at 1 nM” value (from here on “cAMP production (pmol/ml/µg prt) … at 1 nM”) amounted to 20 pmol/ml/µg prt; the “cAMP production (pmol/ml/µg prt) with saturated glucagon peptide, at 10 nM” value (“cAMP production (pmol/ml/µg prt) … at 10 nM” for short) came to 18 pmol/ml/µg prt; the “cAMP production (pmol/ml/µg prt) with saturated glucagon peptide, at 100 nM” value (from here on “cAMP production (pmol/ml/µg prt) … at 100 nM”) turned out to be 16 pmol/ml/µg prt; the “cAMP production (pmol/ml/µg prt) with saturated glucagon peptide, at 1 µM” value (shortened to “cAMP production (pmol/ml/µg prt) … at 1 µM”) is 14 pmol/ml/µg prt. Moreover, the “cAMP production (pmol/ml/µg prt) with saturated glucagon peptide, at 10 µM” value (from here on “cAMP production (pmol/ml/µg prt) … at 10 µM”) with human glucagon receptor turned out to be 12 pmol/ml/µg prt.
Take VH[Aib]QGTFTS[αMeD][αMeBip(OMe)][hhPhe]-NH2 [Seq. ID. No. 59]: in the experiment with human GLP-1 receptor, the “cAMP release, % activity … at 1 nM” value is 39 % of control; the “cAMP release, % activity … at 10 nM” value is 80 % of control; the “cAMP release, % activity … at 100 nM” value is 88 % of control; the “cAMP release, % activity … at 1 µM” value is 96 % of control. Further, the “cAMP release, % activity … at 10 µM” value with human GLP-1 receptor is 99 % of control.

B3: Seq. ID. No. 19 (peptide)
peptide: VH[Aib]QGT[αMePhe(2-F)]TSD[αMeBip(OMe)][hhPhe]
modifications: not fully specified (C-terminus); printed as VH-Aib-QGT-(αMe-2FPhe)-TSD-(αMe-Bip(OMe))-(APPA)
On to B3, for which, in the experiment with human glucagon receptor, the “cAMP production (pmol/ml/µg prt) … at 1 nM” value is 15 pmol/ml/µg prt; the “cAMP production (pmol/ml/µg prt) … at 10 nM” value stood at 12 pmol/ml/µg prt; the “cAMP production (pmol/ml/µg prt) … at 100 nM” value turned out to be 8 pmol/ml/µg prt; the “cAMP production (pmol/ml/µg prt) … at 1 µM” value was 4 pmol/ml/µg prt. The “cAMP production (pmol/ml/µg prt) … at 10 µM” value with human glucagon receptor was 2 pmol/ml/µg prt.
For the molecule VH[αMeP]QGT[αMePhe(2-F)]TS[αMeD][αMeBip(OMe)][hhPhe]-NH2 [Seq. ID. No. 68], in the experiment with human GLP-1 receptor, the “cAMP release, % activity … at 1 nM” value was 40 % of control; the “cAMP release, % activity … at 10 nM” value is 81 % of control; the “cAMP release, % activity … at 100 nM” value is 87 % of control; the “cAMP release, % activity … at 1 µM” value was 95 % of control. Further, the “cAMP release, % activity … at 10 µM” value with human GLP-1 receptor was 98 % of control.
The corresponding values for VH[αMeP]EGTFTS[αMeD][αMeBip(OMe)][hhPhe]-NH2 [Seq. ID. No. 64] are 45 % of control, 84 % of control, 90 % of control, 99 % of control and 99 % of control.
The corresponding values for VHAQGT[αMePhe(2,6-F2)]TSD[αMeBip(OMe)][hhPhe]-NH2 [Seq. ID. No. 26] are 99 % of control, 99 % of control, 99 % of control, 99 % of control and 99 % of control.

B4: Seq. ID. No. 17 (peptide)
peptide: VHSQGT[αMePhe(2-F)]TSD[αMeBip(OMe)][hhPhe]
modifications: not fully specified (C-terminus); printed as VHSQGT-(αMe-2FPhe)-TSD-(αMe-Bip(OMe))-(APPA)
For the molecule B4, in the experiment with human glucagon receptor, the “cAMP production (pmol/ml/µg prt) … at 1 nM” value was 6 pmol/ml/µg prt; the “cAMP production (pmol/ml/µg prt) … at 10 nM” value was found to be 5 pmol/ml/µg prt; the “cAMP production (pmol/ml/µg prt) … at 100 nM” value is 2 pmol/ml/µg prt; the “cAMP production (pmol/ml/µg prt) … at 1 µM” value turned out to be 0 pmol/ml/µg prt. Further, the “cAMP production (pmol/ml/µg prt) … at 10 µM” value with human glucagon receptor is 0 pmol/ml/µg prt.

B5: Seq. ID. No. 88 (peptide)
peptide: VHAEGTFTSD[Bip(2'-Et-4'-OMe)][αMeAPPA]
modifications: not fully specified (C-terminus); printed as VHAEGTFTSD-Bip(OMe)-(αMe-APPA); reading uncertain
As to B5, in the experiment with human GLP-1 receptor, the “cAMP release, % activity … at 1 nM” value was 38 % of control; the “cAMP release, % activity … at 10 nM” value was 77 % of control; the “cAMP release, % activity … at 100 nM” value was 85 % of control; the “cAMP release, % activity … at 1 µM” value was 94 % of control. Further, the “cAMP release, % activity … at 10 µM” value in the experiment with human GLP-1 receptor was 97 % of control.
With VH[Aib]EGT[αMePhe(2,6-F2)]TS[αMeD][αMeBip(OMe)][hhPhe] (not fully specified (C-terminus)) [Seq. ID. No. 79], in the experiment with human GLP-1 receptor, the “cAMP release, % activity … at 1 nM” value was 69 % of control; the “cAMP release, % activity … at 10 nM” value was 98 % of control; the “cAMP release, % activity … at 100 nM” value is 99 % of control; the “cAMP release, % activity … at 1 µM” value is 99 % of control. Also, the “cAMP release, % activity … at 10 µM” value with human GLP-1 receptor was 99 % of control.
As for VH[αMeP]QGT[αMePhe(2,6-F2)]TS[αMeD][αMeBip(OMe)][hhPhe] (not fully specified (C-terminus)) [Seq. ID. No. 76], in the experiment with human GLP-1 receptor, the “cAMP release, % activity … at 1 nM” value is 66 % of control; the “cAMP release, % activity … at 10 nM” value is 97 % of control; the “cAMP release, % activity … at 100 nM” value was 99 % of control; the “cAMP release, % activity … at 1 µM” value is 99 % of control. Further, the “cAMP release, % activity … at 10 µM” value in the experiment with human GLP-1 receptor was 99 % of control.
For VH[Aib]EGT[αMePhe(2-F)]TSD[αMeBip(OMe)][hhPhe]-NH2 [Seq. ID. No. 23], in the experiment with human glucagon receptor, the “cAMP production (pmol/ml/µg prt) … at 1 nM” value was 10 pmol/ml/µg prt; the “cAMP production (pmol/ml/µg prt) … at 10 nM” value is 8 pmol/ml/µg prt; the “cAMP production (pmol/ml/µg prt) … at 100 nM” value was determined as 6 pmol/ml/µg prt; the “cAMP production (pmol/ml/µg prt) … at 1 µM” value was 2 pmol/ml/µg prt. Besides, the “cAMP production (pmol/ml/µg prt) … at 10 µM” value with human glucagon receptor was determined as 0 pmol/ml/µg prt.

For the origin of these results see US20120264685A1 (priority 2009, published 2012).
